For this test, the target named is DLL4 protein (R&D Systems) (Homo sapiens (Human), UniProt Q9NR61 27-524). The experiment in a line: cell-based or functional assay.
Chain of DLL4 protein (R&D Systems) (Q9NR61 27-524 limits assumed): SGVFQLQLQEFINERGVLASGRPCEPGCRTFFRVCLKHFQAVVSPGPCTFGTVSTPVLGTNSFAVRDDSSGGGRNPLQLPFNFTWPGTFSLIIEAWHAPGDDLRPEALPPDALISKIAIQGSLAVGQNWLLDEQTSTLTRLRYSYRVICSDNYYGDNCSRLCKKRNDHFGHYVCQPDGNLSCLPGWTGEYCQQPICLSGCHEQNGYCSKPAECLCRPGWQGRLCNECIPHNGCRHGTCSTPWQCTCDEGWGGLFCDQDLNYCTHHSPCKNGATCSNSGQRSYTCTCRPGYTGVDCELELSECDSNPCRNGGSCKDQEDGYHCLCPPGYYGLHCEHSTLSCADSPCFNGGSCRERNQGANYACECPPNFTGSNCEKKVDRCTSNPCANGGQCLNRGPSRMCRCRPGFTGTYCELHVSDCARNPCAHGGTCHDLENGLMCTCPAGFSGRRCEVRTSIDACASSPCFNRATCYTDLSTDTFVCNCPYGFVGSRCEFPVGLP

B1: BA2 (antibody, V domains shown)
VH: EVQLVESGGGLVQPGGSLRLSCAASGFTFTDNWISWVRQAPGKGLEWVGYISPNSGFTYYADSVKGRFTISADTSKNTAYLQMNSLRAEDTAVYYCARDNFGGYFDYWGQGTLVTVSS
VL: DIQMTQSPSSLSASVGDRVTITCRASQDVSTAVAWYQQKPGKAPKLLIYSASFLYSGVPSRFSGSGSGTDFTLTISSLQPEDFATYYCQQSYTGTVTFGQGTKVEIKR
As for B1, the “EC50, HUVEC proliferation on DLL4-coated wells (CellTiter Glo, day 3)” value (“EC50, HUVEC proliferation” below) turned out to be 45 nM.

B2: 12.3 1C1 (antibody, V domains shown)
VH: DVQLQESGPDLVKPSQSLSLTCTVTDHSITSGYSWHWIRQFPGNKLEWMAYIHYSGYTHYNPSLKSRISITRDTSKNQFFLHLNSVTTEDSATFYCAGSDYSANEGAMAYWGQGTSATVSS
VL: DIVLTQSPASLAVSLGQRATISCRASESVDSFGNSFMHWYQQKAGQPPKLLIYRTSNLQSGIPARFSGSGSRTDFTLTINPVEADDVATYYCQQSNEDPWTFGGGTKLEIKR
Consider B2, for which the “EC50, HUVEC proliferation” value stood at 3.9 nM.

B3: 12.55 (antibody, human IgG2, V domains shown)
VH: EVQLVETGGGLVQPGGSLRLSCAASGFTFSDYAMSWVRQTPGKGLEWVSTISGSGGDTFYADSVKGRFTISRDNSKNTLYLQVNSLRAEDTAVYYCAKDKNRGAYADAFDIWGQGTMVTVSS
VL: QAVLTQPASLSASPGASASLTCTLRSDINVATYRIYWYKQKPGSPPQYLLTYKSDSDKQQGSGVPSRFSGSKDSSANAGILLISGLQSDDEADYHCMVWHKSAPIFGGGTKVTVLG
B3: the “EC50, HES1 luciferase reporter in HELA cells on DLL4-coated wells” value is 21.9 nM.

B4: BA1 (antibody, V domains shown)
VH: QVQLVQSGAEVKKPGASVKISCKASGYSFTAYYIHWVKQAPGQGLEWIGYISSYNGATNYNQKFKGRVTFTTDTSTSTAYMELRSLRSDDTAVYYCARDYDYDVGMDYWGQGTLVTVSS
VL: DIVMTQSPDSLAVSLGERATISCRASESVDNYGISFMKWFQQKPGQPPKLLIYAASNQGSGVPDRFSGSGSGTDFTLTISSLQAEDVAVYYCQQSKEVPWTFGGGTKVEIKR
Regarding B4, the “EC50, HUVEC proliferation” value came out at 60 nM.

These data come from patent publication WO2012092539A2 (dated 2012).
